The text below walks through data of paper PMC9780360, “A conformation-specific nanobody targeting the nicotinamide mononucleotide-activated state of SARM1” (Nature Communications, 2022).

Data set [1] concerns the target T1, dtSARM1, the truncated form of SARM1 without the N-terminal mitochondrial signal, fused with a twin-Strep-tag … (human, UniProt Q6SZW1).
T1 construct: also called recombinant SARM1; SARM1^NMN (loaded with NMN); source: Expi293F stably expressing dtSARM1 (lentiviral); in lysate, or purified (StrepTactin resin, Superdex 200 gel filtration); not shown: twin-Strep, N-terminal, kept; Flag, N-terminal, kept
Nature of the data set: SPR; BIAcore 8K; dtSARM1 captured (about 500 RU) on a CM5 chip coated with Strep-Tactin XT; Nb-C6 1.56-400 nM in NMN/HBS-EP (100 uM NMN, 10 mM HEPES, 150 mM NaCl, 1 mg/mL BSA, 3 mM EDTA, 0.05% P20); 360 s association, 540 s dissociation; two-state kinetics model. The following applies: both partners purified.

Data set [2] addresses T2, dtSARM1, the truncated form of SARM1 without the N-terminal mitochondrial signal, fused with a twin-Strep-tag … (human, UniProt Q6SZW1 28-724).
T2 chain: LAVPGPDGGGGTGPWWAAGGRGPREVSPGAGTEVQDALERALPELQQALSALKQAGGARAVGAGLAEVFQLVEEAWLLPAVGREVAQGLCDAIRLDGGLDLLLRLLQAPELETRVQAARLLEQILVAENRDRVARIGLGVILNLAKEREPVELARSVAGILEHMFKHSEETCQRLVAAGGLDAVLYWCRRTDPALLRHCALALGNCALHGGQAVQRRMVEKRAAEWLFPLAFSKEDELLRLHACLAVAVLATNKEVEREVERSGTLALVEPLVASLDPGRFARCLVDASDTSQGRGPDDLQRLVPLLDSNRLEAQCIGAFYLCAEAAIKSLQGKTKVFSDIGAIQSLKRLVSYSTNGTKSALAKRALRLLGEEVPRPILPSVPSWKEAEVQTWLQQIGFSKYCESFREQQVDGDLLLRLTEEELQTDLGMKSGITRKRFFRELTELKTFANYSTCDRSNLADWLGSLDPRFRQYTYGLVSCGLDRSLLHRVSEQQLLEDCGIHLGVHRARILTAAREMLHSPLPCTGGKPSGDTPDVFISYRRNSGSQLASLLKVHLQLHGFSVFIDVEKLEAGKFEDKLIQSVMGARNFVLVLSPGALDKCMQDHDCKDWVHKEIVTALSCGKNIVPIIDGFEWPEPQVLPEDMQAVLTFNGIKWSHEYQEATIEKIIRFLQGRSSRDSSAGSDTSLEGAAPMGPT
As to the kind of experiment: SPR; 100 uM NMN, two-state fit kd2.

Data set [3] has as its target T1, dtSARM1, the truncated form of SARM1 …. As to the kind of experiment: cryo-EM structure; 3 mg/mL dtSARM1 with 100 uM NMN in 100 mM Tris pH 8.0, 150 mM NaCl, 1 mM EDTA on ice for 10 min, then Nb-C6 at 1:1 molar ratio, 30 min on ice. As to conditions: both partners purified.
The target of a further data set is Nanobody C6 (alpaca). Described as above.
The target in data set [4] is T2, dtSARM1, the truncated form of SARM1 …. As to the kind of experiment: SPR; 100 uM NMN, two-state fit kd1.
Data set [5] deals with the molecule itself. Nature of the data set: cryo-EM structure; 3 mg/mL dtSARM1 with 100 uM NMN in 100 mM Tris pH 8.0, 150 mM NaCl, 1 mM EDTA on ice for 10 min, then Nb-C6 at 1:1 molar ratio, 30 min on ice.

B1: Nanobody C6 (VHH)
VHH: AVQLVESGGGLVQPGGSLRLSCAASVSISRIYVMAWYRQAPGKQREVVAVIRYDGTTNYPDSVKGRFTISRDNAKNTVYLQMNSLKPEDTAVYYCNANVETWGQGTQVTVSS
notes: Subcloned into pET22b; alpaca nanobody from an immune phage display library; also called Nb-C6; source: E. coli C43(DE3), purified (Ni-Excel resin, HiTrap Q)
On to B1, for which, in data set [1], the equilibrium dissociation constant (Kd) is ~25 nM. The values for the koff in data set [2] and in data set [4] were 0.000601 s⁻¹ and 0.0209 s⁻¹, respectively. Also, the “stoichiometry N” value is 1 in data set [3] and 2 with Nanobody C6 (alpaca).

B2: dtSARM1, the truncated form of SARM1 without the N-terminal mitochondrial signal, fused with a twin-Strep-tag and a Flag-tag attached to the N-terminus (enzyme, human, UniProt Q6SZW1 28-724, looked up)
chain: T2 chain
notes: also called recombinant SARM1; SARM1^NMN (loaded with NMN); source: Expi293F stably expressing dtSARM1 (lentiviral); in lysate, or purified (StrepTactin resin, Superdex 200 gel filtration); not shown: twin-Strep, N-terminal, kept; Flag, N-terminal, kept
Consider B2, for which the “stoichiometry N” value in data set [5] was 8.
